Assays:
[1] = Feeding trial in pigs: OTA concentration in plasma and urine; type: in vivo; conditions: for % OTA reduction, plasma samples / % OTA reduction, urine samples: day 14
Procedure: To further study an application of the enzymes referred to herein as additives e.g. for feed or food, feeding trials were conducted in pigs. Exemplarily, either of the enzymes having either the amino acid sequence of SEQ ID NO: 1 or 2 were produced by cultivation of E. coli transformants in bioreactors by applying methods known to a person having skill in the art. The cell broth was homogenized and centrifuged. The supernatant was concentrated, dried by lyophilization and formulated as a powder by grinding. The enzymatic activity of the thus obtained lyophilized powder was determined, and the powder was mixed with feed for the feeding trial as described in the following.
Thirteen piglet groups were studied based on the following experimental diet setups: 1) Base feed; 2) base feed+50 ppb OTA; 3) base feed+50 ppb OTA+2.62 U of the enzyme of SEQ ID NO: 1 per kg of feed; 4) base feed+50 ppb OTA+0.29 U of the enzyme of SEQ ID NO: 2 per kg of feed; 5) base feed+500 ppb OTA; 6) base feed+500 ppb OTA+2.62 U of the enzyme of SEQ ID NO: 1 per kg of feed; 7) 500 ppb OTA+0.29 U of the enzyme of SEQ ID NO: 2 per kg of feed.
Each trial group consisted of four piglets weighing approximately 7-8 kg, who were coming out from weaning and adapted to solid diet before being fed the experimental diet as described above. The duration of the feeding trial (i.e. actual days of feeding the experimental diet) was fourteen days. Collectively each trial group consumed around 15 kg of feed. No piglets fell sick to any unexpected disease throughout the feeding trial. Urine and blood samples were collected on day 0, just before starting the experimental diet, and on day 14.
Extraction of OTA was performed from plasma and urine samples for subsequent analysis by HPLC-MS. 200 μL of sample was thoroughly mixed with 800 μL of extraction solution (containing 99% of ethyl acetate and 1% of phosphoric acid, 85%) followed by centrifugation at 19000×g for 5 min for phase separation. 50 μL of upper phase was diluted with 50 μL of acetonitrile, followed by HPLC-MS analysis. The HPLC-MS method as described by Dellafiora et al. (2020, Toxins 12, 258) was used to determine the changes in OTA concentration in the samples taken during the trial upon consumption of the experimental diets. The results are shown in Table 18 using the diet setup numbering as indicated above.

[2] = Pelleting trial: degradation of spiked OTA to OTalpha in mash feed and resuspended pellets; conditions: for OTalpha %: formed OTalpha; for OTA %: remaining OTA
Procedure: To verify the suitability of the enzymes referred to herein as additives e.g. for feed or food, pelleting trials were conducted. As an example, 1.15 U or 0.06 U of either of the enzymes having either the amino acid sequence of SEQ ID NO: 1 or 2 was homogeneously mixed with one kg of mash feed and subjected to standard feed pelleting process where the temperature of the conditioner was set to either 75, 80, 85, 90 or 95° C. in five separate batches of feed pelleting. The effect of pelleting process on the stability of enzyme was estimated by calculation of percentage degradation of spiked OTA to OTalpha in resuspended pellets. Untreated mash was analyzed applying the following protocol: 50 μL of 10 ppm OTA were spiked to g of dry sample, directly before starting the assay by adding 4.95 mL RO-water (37° C.). The suspension was incubated in 50 mL tubes in an overhead shaker at 37° C. for 60 min. The reaction was stopped by adding 1 mL 6 M phosphoric acid followed by another incubation in a rotary shaker at room temperature for 10 min. Subsequently 30 μL of ^13C-labeled OTA/^13C-labeled OTalpha (each 1 ppm) internal standard were added to each sample and mixed. 30 mL ethyl acetate were added followed by shaking for 60 min at 80 rpm on an overhead shaker. After centrifugation (10 min, 3214 rcf), 8 mL of the organic upper phase were transferred to a new 50 mL tube. 4 mL of 0.1 M NaHCO3 (pH 8.2) were added. After shaking for 1 min at 80 rpm on an overhead shaker, sample was centrifuged again (10 min, 3214 rcf) and 3 mL of the aqueous lower phase transferred to a new 15 mL tube. 70 μL 85% phosphoric acid and 1.5 mL ethyl acetate were added and shaken for 1 min at 80 rpm at an overhead shaker. After centrifugation (10 min, 3214 rcf) 50 μL organic upper phase were added to 50 μL acetonitrile in a silanized HPLC vial and thoroughly mixed. OTA and OTalpha content was determined by HPLC MS/MS method as described by Dellafiora et al. (2020, Toxins 12, 258) to determine the percentage of OTA degradation to form OTalpha.

[3] = Thermostability assay: residual OTA detoxification activity after 10 min incubation at 45-99° C. (T50); type: physicochemical; conditions: 0.1 mg/mL protein in 20 mM Tris-HCl pH 7.5, residual OTA detoxification activity relative to 4° C. reference aliquot
Method in brief: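 Purified enzyme at 0.1 mg/mL in 20 mM Tris-HCl pH 7.5 was heated 10 min at 45–99 °C, then held at 4 °C. Residual OTA detoxification activity was expressed relative to an aliquot kept at 4 °C throughout; T50 is the temperature range giving 50% activity loss.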

[4] = OTA detoxification activity assay (specific activity, fluorescence reduction ex/em 390/450 nm); type: biochemical; conditions: SEQ ID NO: 1 = 100%
Method in brief: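 Recombinant enzyme preparation with 200 ng/mL OTA in 100 mM sodium phosphate, at pH 6.0 and pH 7.5, 37° C. Degradation followed as the fall in fluorescence at ex/em 390/450 nm. Specific activity taken from the initial linear slope; one unit degrades 1 μmol OTA per min at a starting OTA of […].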

[5] = 500 ppb OTA+enzyme (2.62 U SEQ ID NO: 1 or 0.29 U SEQ ID NO: 2 per kg of feed)
[6] = base feed+50 ppb OTA+enzyme (2.62 U SEQ ID NO: 1 or 0.29 U SEQ ID NO: 2 per kg of feed)
[7] = mash before pelleting, 1.15 U or 0.06 U enzyme per kg mash feed, 37° C., 60 min

B1: SEQ ID NO: 2: exemplary OTA-hydrolyzing polypeptide 2 belonging to the amidohydrolase protein family (protein)
chain: MYSLAIRNGIVFDGEKFIGKTNIYVDGDKIVKITNERLDAKEEVNAEGYFVMPGLIDAHLHLTGIRGGSLLMGYLLDDPRTRLLRAANWARELLMAGFTTVRDCGEPNSIILRNAINEGIIPGPRIIAAGSPITQTFGHAELSHSLPLEWSIQLGFGEICDGVDECIKAARKVLRSGADFIKIMATGGVLSERDRPEWPQLTPEEMSAIVREAEKVGTYVAAHAHGDKGARIAVEAGVRTIEHGSLITEETVKLMAEKGVSLTPTLSIQELIYKYGKQMGIDPWGLEKIGQVREGVINSIKLARKYGVMILAGTDLGFKTGLDIDMGKNWVEVKLLVELGGLSSEEALRAATGNASKMLRLNTGIIREGYLADIVLINGNPLENINDIARVSTVIKGGKVTVENGKLI
modifications: polypeptide 2
notes: exemplary OTA-hydrolyzing polypeptide 2 belonging to the amidohydrolase protein family
OTA concentration in plasma samples, Day 14 [1, 5]: 107 ± 31 ppb | OTA concentration in urine samples, Day 14 [1, 5]: 4 ppb | % OTA reduction, plasma samples [1, 5]: 74% | % OTA reduction, urine samples [1, 5]: 80% | OTA concentration in plasma samples, Day 14 [1, 6]: 11 ± 3 ppb | OTA concentration in urine samples, Day 14 [1, 6]: 0 ppb | % OTA reduction, plasma samples [1, 6]: 73% | % OTA reduction, urine samples [1, 6]: 100% | OTalpha % ([2]; after pelleting at 75° C.): 84% | OTalpha % ([2]; after pelleting at 80° C.): 88% | OTalpha % ([2]; after pelleting at 85° C.): 84% | OTalpha % ([2]; after pelleting at 90° C.): 88% | OTalpha % ([2]; after pelleting at 95° C.): 87% | OTalpha % [2, 7]: 80% | OTA % ([2]; after pelleting at 75° C.): 16% | OTA % ([2]; after pelleting at 80° C.): 12% | OTA % ([2]; after pelleting at 85° C.): 16% | OTA % ([2]; after pelleting at 90° C.): 12% | OTA % ([2]; after pelleting at 95° C.): 13% | OTA % [2, 7]: 20%

B2: 48 (protein)
chain: MTTRTRILTAFLSLLAANACAADAAPAAPHTVVLRAARMFDGASGKLVDHPQLTIVGNKIVRIAQGDKAEVPAGAEVVDLGDATLLPGFIDAHVHLSGQSSDNWYGDFADNMMRFPAEQALYGAYYARITLEAGFTSVRDVGSTDWVALGLRNAIDAGKVPGPRMLVSNYAVGSTGGHADQDPIPPHKLPLAGPLQGVCNGPEECRAAVRYQIKYGANVIKFMPSGGVLSLSDPVDAPELSQDEMNAVIGESHAWGRKVAAHAHGDKAAKMAVAAGVDSIEHGSFIEDDTLRAMKAKNVYLVPTISAIAHVEEKIGTFPPVIAEKGRAAAAHLRQTFRHAVQIGVPIALGTDAGVGAHGSNAREFRYMVENGLTPAQALLAGTANAARLLGTFDRVGTLEAGKLADVVAVPGNPIADITVTERPLFVMKDGVVVRRDAVR
modifications: exemplary polypeptide
T50 (temperature at which 50% of the initial activity was maintained) [3]: <63.2 °C | Specific OTA detoxification activities in % compared to the enzyme of SEQ ID NO: 1, pH 6.0 [4]: 54% | Specific OTA detoxification activities in % compared to the enzyme of SEQ ID NO: 1, pH 7.5 [4]: 102%

B3: 49 (protein)
chain: MTTRTRILTAFLSLLAANACAADAAPAAPHTVVLRAARMFDGASGKLVDHPQLTIVGNKIVRIAQGDKAEVPAGAEVVDLGDATLLPGFIDAHVHLSGQSSDNWYGDFFDNMMRFPAEQALYGAYYARITLEAGFTSVRDVGSADWVALGLRNAIDAGKVPGPRMLVSNYAVGSTGGHADQDPIPPHKLPLAGPLQGVCNGPEECRAAVRYQIKYGANVIKFMPSGGVLSLSDPVDAPELSQDEMNAVIGESHAWGRKVAAHAHGDKAAKMAVAAGVDSIEHGSFIEDDTLRAMKAKNVYLVPTISAIAHVEEKIGTFPPVIAEKGRAAAAHLRQTFRHAVQIGVPIALGTDAGVGAHGSNAREFRYMVENGLTPAQALLAGTANAARLLGTFDRVGTLEAGKLADVVAVPGNPIADITVTERPLFVMKDGVVVRRDAVR
modifications: exemplary polypeptide
T50 (temperature at which 50% of the initial activity was maintained) [3]: 68-70 °C | Specific OTA detoxification activities in % compared to the enzyme of SEQ ID NO: 1, pH 6.0 [4]: 76% | Specific OTA detoxification activities in % compared to the enzyme of SEQ ID NO: 1, pH 7.5 [4]: 179%

B4: 50 (protein)
chain: MTTRTRILTAFLSLLAANACAADAAPAAPHTVVLRAARMFDGASGKLVDHPQLTIVGNKIVRIAQGDKAEVPAGAEVVDLGDATLLPGFIDAHVHLSGQSSDNWYGDFFDNMMRFPAEQALYGAYYARITLEAGFTSVRDVGSTDWVALGLRNAIDAGKVPGPRMLVSNYPVGSTGGHADQDPIPPHKLPLAGPLQGVCNGPEECRAAVRYQIKYGANVIKFMPSGGVLSLSDPVDAPELSQDEMNAVIGESHAWGRKVAAHAHGDKAAKMAVAAGVDSIEHGSFIEDDTLRAMKAKNVYLVPTISAIAHVEEKIGTFPPVIAEKGRAAAAHLRQTFRHAVQIGVPIALGTDAGVGAHGSNAREFRYMVENGLTPAQALLAGTANAARLLGTFDRVGTLEAGKLADVVAVPGNPIADITVTERPLFVMKDGVVVRRDAVR
modifications: exemplary polypeptide
T50 (temperature at which 50% of the initial activity was maintained) [3]: 64 °C | Specific OTA detoxification activities in % compared to the enzyme of SEQ ID NO: 1, pH 6.0 [4]: 81% | Specific OTA detoxification activities in % compared to the enzyme of SEQ ID NO: 1, pH 7.5 [4]: 257%
